According to article PMC3290997 (Biochemistry, 2012):
Where two headings read alike, the source gives them in different places. No end group written: not given here. *: point of attachment. Biotin = O=C1N[C@H]2[C@H](CS[C@H]2CCCCC(=O)*)N1; MBP = 4-maleimido-benzophenone

How the values were obtained:
SecA [1] = molecular target: T1, SecA (E. coli, UniProt P10408 1-901); assay: cross-linking
SecA [2] = molecular target: T1, SecA; assay: cross-linking; remark: listed apart in the source

T1 sequence (P10408 whole entry): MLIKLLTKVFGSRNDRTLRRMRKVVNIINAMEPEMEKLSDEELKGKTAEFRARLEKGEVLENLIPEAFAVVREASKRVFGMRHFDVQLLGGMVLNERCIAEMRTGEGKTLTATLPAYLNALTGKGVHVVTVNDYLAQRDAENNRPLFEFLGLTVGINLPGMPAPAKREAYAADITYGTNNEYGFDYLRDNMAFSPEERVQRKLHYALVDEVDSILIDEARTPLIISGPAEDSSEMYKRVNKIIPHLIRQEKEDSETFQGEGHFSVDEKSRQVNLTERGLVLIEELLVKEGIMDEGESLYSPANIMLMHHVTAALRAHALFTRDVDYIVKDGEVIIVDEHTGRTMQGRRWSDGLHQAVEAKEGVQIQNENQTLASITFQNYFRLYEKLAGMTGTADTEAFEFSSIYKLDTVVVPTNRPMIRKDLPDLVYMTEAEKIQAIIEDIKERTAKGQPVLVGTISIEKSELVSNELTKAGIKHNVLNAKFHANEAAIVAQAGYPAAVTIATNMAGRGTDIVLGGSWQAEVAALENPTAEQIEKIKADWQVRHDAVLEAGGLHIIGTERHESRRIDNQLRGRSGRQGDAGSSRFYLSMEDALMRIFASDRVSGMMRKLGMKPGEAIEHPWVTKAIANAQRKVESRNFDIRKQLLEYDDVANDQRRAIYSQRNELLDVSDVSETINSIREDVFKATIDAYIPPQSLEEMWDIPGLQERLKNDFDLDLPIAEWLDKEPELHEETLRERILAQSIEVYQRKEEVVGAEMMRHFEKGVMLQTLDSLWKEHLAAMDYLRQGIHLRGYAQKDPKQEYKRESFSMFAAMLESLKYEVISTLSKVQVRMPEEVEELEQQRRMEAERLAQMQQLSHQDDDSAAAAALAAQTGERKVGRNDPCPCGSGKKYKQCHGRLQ

binding result (SecA [1])	binding result (SecA [2])	Binder
binds		Biotin-MMITLRKRRKLPLAVAVAAGVCSAQAMA [Biotinylated-KRRLamB19C signal peptide]
	binds	Biotin-MMITLRKRRKLPLAVAVAAGVC(MBP)SAQAMA [Bio-KRRLamB19C-MBP]
